Like-named read-outs stand apart in the source and are kept apart here. Values belong to the binder of their own block, whether it stands above or below them.
Key:
[1] = target: T1, Mouse CD93 on cells (mouse CD93 expressing CHO cells; mouse CD93 expressing HEK cells) (mouse, UniProt O89103 23-644); test: summary table; method and form of mouse CD93 not given
T1 construct: whole, on cells; also called mCD93 HEK; CD93-HEK cells
T1 sequence (looked up): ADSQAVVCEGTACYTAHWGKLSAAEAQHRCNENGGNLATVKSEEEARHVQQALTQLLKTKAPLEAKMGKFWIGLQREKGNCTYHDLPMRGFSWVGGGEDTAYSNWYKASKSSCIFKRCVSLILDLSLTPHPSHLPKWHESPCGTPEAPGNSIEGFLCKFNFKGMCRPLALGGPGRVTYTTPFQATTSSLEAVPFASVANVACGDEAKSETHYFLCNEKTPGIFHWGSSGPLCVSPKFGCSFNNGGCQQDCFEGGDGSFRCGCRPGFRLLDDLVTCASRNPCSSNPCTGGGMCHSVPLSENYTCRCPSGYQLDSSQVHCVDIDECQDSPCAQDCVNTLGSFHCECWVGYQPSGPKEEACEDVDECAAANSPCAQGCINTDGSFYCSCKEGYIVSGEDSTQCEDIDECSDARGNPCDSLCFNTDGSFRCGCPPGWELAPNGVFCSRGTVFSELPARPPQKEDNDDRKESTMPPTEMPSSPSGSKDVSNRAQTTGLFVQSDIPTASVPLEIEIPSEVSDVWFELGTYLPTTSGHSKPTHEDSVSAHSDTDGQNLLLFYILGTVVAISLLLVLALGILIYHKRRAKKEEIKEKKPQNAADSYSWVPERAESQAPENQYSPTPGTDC

[2] = target: T2, Human CD93 on cells (human CD93 expressing CHO cells; HUVEC, U937 and KG1a cells) (human, UniProt Q9NPY3 22-652); test: flow cytometry blocking assay, CHO-hCD93 cells; blocked ligand hMMRN2 495-674 at 0.1 ug/ml
T2 construct: whole, on cells; also called hCD93 expressing CHO cells; hCD93 CHO cells
T2 sequence (looked up): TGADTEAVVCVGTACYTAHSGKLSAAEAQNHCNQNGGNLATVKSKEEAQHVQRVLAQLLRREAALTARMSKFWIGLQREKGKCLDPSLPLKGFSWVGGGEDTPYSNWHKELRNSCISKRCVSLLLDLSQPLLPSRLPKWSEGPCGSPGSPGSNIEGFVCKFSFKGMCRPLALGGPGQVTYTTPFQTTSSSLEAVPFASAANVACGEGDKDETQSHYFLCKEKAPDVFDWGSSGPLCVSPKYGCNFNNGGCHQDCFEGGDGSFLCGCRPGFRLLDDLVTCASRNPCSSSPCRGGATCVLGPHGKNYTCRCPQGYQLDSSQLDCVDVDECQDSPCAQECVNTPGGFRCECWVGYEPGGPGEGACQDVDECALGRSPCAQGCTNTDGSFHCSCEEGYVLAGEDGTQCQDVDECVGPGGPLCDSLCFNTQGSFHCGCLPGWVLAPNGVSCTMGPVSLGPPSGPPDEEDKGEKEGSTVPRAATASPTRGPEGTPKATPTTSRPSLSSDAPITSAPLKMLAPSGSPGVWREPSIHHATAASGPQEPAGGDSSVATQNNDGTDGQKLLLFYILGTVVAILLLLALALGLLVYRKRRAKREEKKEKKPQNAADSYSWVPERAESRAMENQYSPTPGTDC
Description: Then the cells were incubated with hMMRN2₄₉₅₋₆₇₄ at 0.1 μg/ml. […] Then the cells were washed with FACS buffer and incubated with APC-conjugated anti-His tag antibody at 1 μg/ml for 30 minutes at 4° C. After washing with FACS buffer twice, the samples were analyzed and data acquired in NovoCyte Flow. Recombinant his tagged […] was produced internally in Expi_HEK following routine procedure.

[3] = target: T2, Human CD93 on cells (human CD93 …); test: flow cytometry titration, CHO-hCD93 cells; antibody stored 2 weeks at 40 C
Description: (§1) Human CD93 expressing CHO cells were detached by incubation with TrypLE reagents (Thermo Fisher), which preserves the integrity of CD93 on the cell surface. Then the cells were incubated with serial diluted anti-CD93 antibodies for 30 minutes in 4° C. After washing by FACS buffer, the cells were incubated with Alexa Fluor 647 conjugated anti-human IgG (Jackson ImmunoResearch) for 30 minutes at 4° C. After washing by FACS buffer twice, the samples were acquired in NovoCyte Flow Cytometer and analyzed by NovoExpress software.

[4] = target: T2, Human CD93 on cells (human CD93 …); test: as above; remark: listed apart in the source
Description: as §1, with “minutes at” for “minutes in”, “minutes in” for “minutes at”

binding result [1]: no binding
B1: 16E4 (hybridoma) (antibody, IgG2a, V domains shown)
VH: QVQLQQPGAELVKPGASVKLSCKASGYTFTSYWMHWVKQRPGQGLEWIGEIDPSASYTYYNQKFKGKATLTVDKSSSTAYMQLSSLTSEDSAVYYCARSVYYGNKYFDVWGAGTTVTVSS
VL: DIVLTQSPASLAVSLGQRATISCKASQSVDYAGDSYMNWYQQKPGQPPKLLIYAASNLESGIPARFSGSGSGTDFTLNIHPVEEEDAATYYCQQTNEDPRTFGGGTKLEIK
notes: also called 16E4 mAb; 16E4 mIgG2a

IC50 [2]: 0.133 nM | EC50 [3]: 0.194 nM
B2: h7F3 (humanized 7F3, VH3+VL3) (antibody, human IgG1, V domains shown)
VH: QVQLVQSGAEVKKPGASVKVSCKASGYTFTDYEMHWVRQAPGQGLEWMGGIDPETGDTAYNQNFKGRVTMTTDTSTSTAYMELRSLTSDDTAVYYCTNYGNLYYYAMDYWGQGTSVTVSS
VL: EIVLTQSPSSLSASVGDRVTITCRASSSVSSSYLHWYQQKPGKAPKLLIYSTSNLAFGVPSRFSGSGSGTSYTFTISSLQPEDIATYYCQQYSGYPLTFGSGTKLEIK
notes: also called humanized 7F3-hIgG1

EC50 [4]: 0.274 nM
B3: h16E4 (humanized 16E4, VH4+VL6) (antibody, V domains shown)
VH: QVQLVQSGAEVKKPGASVKVSCKASGYTFTSYWMHWVRQAPGQGLEWMGEIDPSASYTYYNQKFKGRVTMTRDKSSSTVYMELSSLTSEDSAVYYCARSVYYGNKYFDVWGAGTTVTVSS
VL: DIQMTQSPSTLSASVGDRVTITCKASQSVDYAGDSYMNWYQQKPGKAPKLLIYAASNLESGVPSRFSGSGSGTEFTLTISSLQPDDFATYYCQQTNEDPRTFGGGTKLEIK
notes: Detected with anti-human IgG, so a human Fc
